{"source": "paper PMC10024700", "origin": "cited, not measured here", "key": {"[1]": {"target": "Cadherin-23 EC1-2 (Mus musculus) (UniProt Q99PF4)", "assay": "AUC"}, "[2]": {"target": "Protocadherin-15 EC1-2 (Mus musculus) (UniProt Q99PJ1)", "assay": "SPR"}, "[3]": {"target": "Protocadherin-15 EC1-2 (Mus musculus) (UniProt Q99PJ1)", "assay": "ITC"}}, "note": "pKd: −log10 of the molar value."}
{"substance": "Cadherin-23 EC1-2 (from UniProt Q99PF4)", "values": [{"measurement": "pKd", "setting": "[1]", "result": 4.74}, {"measurement": "pKd", "setting": "[2]", "result": 6.08}, {"measurement": "pKd", "setting": "[3]", "result": 5.54}]}
